Measurements from the supplement of paper PMC10126150.
± gives the standard deviation of the averaged measurements.

Test system: ATP
Assay: switch fluorescence ratio, 500 uM ATP over buffer (Cy3 cluster intensity, sum of 5 cycles each) (fold (ratio)); higher = stronger signal-on switching upon ATP binding; sequences stand for … in TCGTCGGCAGCGTCAGATGTGTATAAGAGACAGTTTTTTTTTTTTTTTTTTTTTTTTT…TC
Conditions: aptamer strand: ATP DNA aptamer (quencher-CACCTGGGGGAGTATTGCGGAGGAAGG + anchor), 100 nM annealed; ATP concentration: 500 uM
Procedure, shortened: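 Between each of five buffer/ATP cycles, the flow-cell was stripped with NaOH and re-annealed. Each cycle imaged Cy3-labelled switching-strand clusters, annealed to 100 nM quencher-labelled ATP aptamer on a modified Illumina MiSeq flow-cell, first in selection buffer and then after 15 min with 500 uM ATP at 22 °C. The fluorescence ratio is summed target-cycle over summed buffer-cycle Cy3 intensity per cluster, averaged per switch-domain sequence, with clusters outside 100-1000 RFU excluded.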
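Further: ATP exposure 15 min at 22 °C before imaging.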

Row | Sequence | switch fluorescence ratio
1 | CCGTTATAGT | 1.795 ± 0.012
2 | CCGTTCCCGT | 1.13 ± 0.028
3 | CCGTTGGGTG | 1.12 ± 0.071
4 | CCGTTGGTAA | 1.345 ± 0.0022
5 | CCGTTGTCTT | 1.03 ± 0.025
6 | CCGTTTCCGG | 1.02 ± 0.027
7 | CCGTTTCTGG | 1 ± 0.063
8 | CCGTTTGGGA | 0.998 ± 0.032
9 | CCGTTTTCGG | 0.952 ± 0.053
10 | CCTAAAGTAG | 1.017 ± 0.0071
11 | CCTAAATACC | 1.29 ± 0.25
12 | CCTAAATGGG | 1.01 ± 0.077
13 | CCTAACAGGA | 1.01 ± 0.04
14 | CCTAAGGGGG | 1.04 ± 0.074
15 | CCTAATGCAG | 1.11 ± 0.049
16 | CCTACCCTCC | 3.05 ± 0.22
17 | CCTACGTGGT | 4.49 ± 0.15
18 | CCTAGGGGTC | 1.09 ± 0.028
19 | CCTAGGGGTG | 1.32 ± 0.27
20 | CCTAGGGTCA | 1.01 ± 0.018
21 | CCTAGGGTTC | 0.984 ± 0.01
22 | CCTAGTTGTG | 1.02 ± 0.016
23 | CCTATGCGGT | 2.6 ± 0.067
24 | CCTATGCTTC | 3.38 ± 1.7
25 | CCTATGGGGT | 0.974 ± 0.024

Row | Sequence | switch fluorescence ratio
26 | CCTATGGTAG | 1.014 ± 0.0099
27 | CCTATTATTG | 0.98 ± 0.028
28 | CCTATTGTAT | 1.02 ± 0.033
29 | CCTATTGTGG | 0.993 ± 0.015
30 | CCTATTTGTA | 0.974 ± 0.051
31 | CCTCAAAGGG | 1.38 ± 0.18
32 | CCTCGCTGAG | 3.48 ± 0.98
33 | CCTCGGGGGT | 1.02 ± 0.04
34 | CCTCGGGTTA | 1.42 ± 0.038
35 | CCTCTATATT | 1.181 ± 0.011
36 | CCTCTTTTTG | 1.02 ± 0.011
37 | CCTGAAGACA | 1 ± 0.02
38 | CCTGAGGGAC | 0.99 ± 0.03
39 | CCTGAGGGGA | 1.16 ± 0.2
40 | CCTGAGGTTA | 1.03 ± 0.096
41 | CCTGATCACC | 1.063 ± 0.0098
42 | CCTGATGGTA | 1.03 ± 0.025
43 | CCTGATTTGG | 0.969 ± 0.03
44 | CCTGCAAACA | 2.22 ± 0.17
45 | CCTGCAGTTT | 1.04 ± 0.019
46 | CCTGCGCACG | 3.98 ± 0.93
47 | CCTGCTTGGT | 1.029 ± 0.0082
48 | CCTGCTTTGG | 1.07 ± 0.083
49 | CCTGGCGCCA | 1.006 ± 0.0021
50 | CCTGGGACCA | 0.975 ± 0.0064

Row | Sequence | switch fluorescence ratio
51 | CCTGGGAGCA | 1.08 ± 0.057
52 | CCTGGGAGTG | 0.999 ± 0.035
53 | CCTGGGGATA | 1.04 ± 0.024
54 | CCTGGGGCGT | 1.06 ± 0.12
55 | CCTGGGGCTA | 1.25 ± 0.021
56 | CCTGGGGCTT | 1.03 ± 0.033
57 | CCTGGGGGGC | 1.09 ± 0.18
58 | CCTGGGGGTA | 1.04 ± 0.024
59 | CCTGGGGTAA | 1.09 ± 0.039
60 | CCTGGGGTGT | 1.34 ± 0.28
61 | CCTGGTACTG | 1.05 ± 0.015
62 | CCTGTAAGCT | 1.3 ± 0.077
63 | CCTGTAATTG | 1.03 ± 0.031
64 | CCTGTACGGA | 1.004 ± 0.0067
65 | CCTGTGTGAC | 1.344 ± 0.013
66 | CCTGTTTGAG | 1.04 ± 0.11
67 | CCTTACCTTG | 1.04 ± 0.041
68 | CCTTATTTTG | 1.05 ± 0.065
69 | CCTTCAGAGG | 1.12 ± 0.033
70 | CCTTCCGGGG | 2.07 ± 0.23
71 | CCTTCTCGTC | 1.34 ± 0.096
72 | CCTTGATCTG | 1.06 ± 0.02
73 | CCTTGCCCTT | 1.03 ± 0.014
74 | CCTTGGAACG | 1.03 ± 0.011
75 | CCTTGGCGCG | 0.995 ± 0.035

Row | Sequence | switch fluorescence ratio
76 | CCTTGGCTTT | 1.53 ± 0.11
77 | CCTTTAGATG | 1.03 ± 0.04
78 | CCTTTAGGGG | 0.997 ± 0.037
79 | CCTTTATGGC | 0.947 ± 0.029
80 | CCTTTATTTA | 0.986 ± 0.026
81 | CCTTTGGAAT | 1.16 ± 0.031
82 | CCTTTTGGGC | 0.97636 ± 3.3e-05
83 | CCTTTTGTTA | 0.989 ± 0.02
84 | CCTTTTTGGT | 1.016 ± 0.01
85 | CCTTTTTTGG | 1.02 ± 0.021
86 | CCTTTTTTTG | 1.01 ± 0.024
87 | CGAAAAAAAA | 0.948 ± 0.062
88 | CGAAAAAAGA | 1.05 ± 0.12
89 | CGAAAAATAG | 0.985 ± 0.043
90 | CGAAAACGGT | 0.999 ± 0.048
91 | CGAAAACGTG | 0.976 ± 0.012
92 | CGAAAGATGA | 0.982 ± 0.019
93 | CGAAAGTAGC | 1.01 ± 0.013
94 | CGAAATCATC | 1.063 ± 0.0053
95 | CGAAATCGTG | 0.9964 ± 0.0047
96 | CGAAATGGGT | 1.03 ± 0.025
97 | CGAACAGCGC | 1.01 ± 0.019
98 | CGAACCTTGG | 0.998 ± 0.019
99 | CGAAGACGTA | 1.05 ± 0.06
100 | CGAAGATTTG | 1 ± 0.015

Row | Sequence | switch fluorescence ratio
101 | CGAAGCAGGA | 2.4 ± 0.097
102 | CGAAGGATCT | 1.02 ± 0.019
103 | CGAAGGCTGG | 1.0003 ± 0.00038
104 | CGAAGGGATG | 0.982 ± 0.031
105 | CGAAGGGGGG | 1.03 ± 0.087
106 | CGAAGGGTCC | 0.959 ± 0.031
107 | CGAAGGGTGA | 1.06 ± 0.02
108 | CGAAGGGTGG | 0.993 ± 0.028
109 | CGAAGGTTTA | 0.9981 ± 0.0018
110 | CGAATCAAAC | 1.52 ± 0.032
111 | CGAATCTTGT | 1.01 ± 0.016
112 | CGAATCTTTT | 1.013 ± 0.0025
113 | CGAATGGAAC | 0.989 ± 0.017
114 | CGAATGGTCG | 1.041 ± 0.0095
115 | CGAATTAATT | 0.96152 ± 0.00065
116 | CGAATTACGT | 0.992 ± 0.016
117 | CGACAGGCAT | 1.63 ± 0.063
118 | CGACCACTTT | 1.04 ± 0.025
119 | CGACTAAAAG | 0.999 ± 0.042
120 | CGACTACCTT | 1.21 ± 0.016
121 | CGACTAGGTA | 1 ± 0.062
122 | CGACTGATTA | 0.991 ± 0.013
123 | CGACTTTTAT | 0.9818 ± 0.0046
124 | CGACTTTTGT | 0.967 ± 0.013
125 | CGAGAAGAGA | 1.01 ± 0.013

Row | Sequence | switch fluorescence ratio
126 | CGAGAAGGTG | 1.24 ± 0.33
127 | CGAGACAGGG | 1 ± 0.036
128 | CGAGAGGGGA | 1.03 ± 0.02
129 | CGAGATATGT | 1.002 ± 0.0038
130 | CGAGATGGGT | 0.974 ± 0.028
131 | CGAGATGTTA | 0.993 ± 0.015
132 | CGAGCCGAGA | 1.003 ± 0.0095
133 | CGAGCGTAGG | 1.01 ± 0.043
134 | CGAGCTTTAG | 1.024 ± 0.0033
135 | CGAGGAGGGC | 0.974 ± 0.019
136 | CGAGGCAGCT | 1.16 ± 0.15
137 | CGAGGCCTGT | 1.02 ± 0.022
138 | CGAGGGCAGG | 1.08 ± 0.06
139 | CGAGGGCATG | 1.07 ± 0.045
140 | CGAGGGGAAC | 2.81 ± 2.5
141 | CGAGGGGATA | 1.04 ± 0.051
142 | CGAGGGGCTG | 1.03 ± 0.013
143 | CGAGGGTAAG | 1 ± 0.0022
144 | CGAGTAAAGA | 1.03 ± 0.028
145 | CGAGTAACGC | 1.03 ± 0.015
146 | CGAGTACGGT | 0.979 ± 0.028
147 | CGAGTAGGGG | 1.01 ± 0.025
148 | CGAGTATGAA | 0.989 ± 0.06
149 | CGAGTCAGTT | 0.992 ± 0.029
150 | CGAGTCCAAG | 1.01 ± 0.026

Row | Sequence | switch fluorescence ratio
151 | CGAGTTAAGC | 0.965 ± 0.02
152 | CGAGTTGGCT | 1 ± 0.032
153 | CGAGTTGTTG | 1.014 ± 0.0072
154 | CGAGTTGTTT | 1 ± 0.03
155 | CGATAAGAAG | 1.01 ± 0.017
156 | CGATAAGCGG | 1.02 ± 0.035
157 | CGATACCGTG | 1.007 ± 0.0044
158 | CGATACGATT | 1.06 ± 0.076
159 | CGATAGTATA | 1.007 ± 0.0082
160 | CGATATGTTC | 1.01 ± 0.018
161 | CGATCCGGGC | 1.05 ± 0.043
162 | CGATCCTTTT | 1.05 ± 0.029
163 | CGATCGGGAT | 1.12 ± 0.13
164 | CGATCTTACG | 0.9935 ± 0.0069
165 | CGATCTTGGA | 0.94 ± 0.065
166 | CGATGAATTC | 1.07 ± 0.048
167 | CGATGAATTG | 0.981 ± 0.023
168 | CGATGAGGGG | 0.967 ± 0.03
169 | CGATGAGTAA | 1 ± 0.029
170 | CGATGCAGTT | 1.05 ± 0.041
171 | CGATGCGAAG | 1.02 ± 0.035
172 | CGATGGATGG | 1.01 ± 0.037
173 | CGATGGCGGG | 1.02 ± 0.071
174 | CGATGGGGAC | 1.14 ± 0.019
175 | CGATGGGGTA | 1.01 ± 0.044

Row | Sequence | switch fluorescence ratio
176 | CGATGGTGTT | 1.01 ± 0.035
177 | CGATGTAGGC | 1.05 ± 0.088
178 | CGATGTCGTA | 1.03 ± 0.034
179 | CGATGTCTCT | 0.973 ± 0.047
180 | CGATGTTTTT | 0.957 ± 0.029
181 | CGATTATTTC | 0.983 ± 0.0096
182 | CGATTCGCAG | 1.25 ± 0.096
183 | CGATTCTTGG | 0.99932 ± 5.1e-05
184 | CGATTGCATG | 1.05 ± 0.017
185 | CGATTGGGGG | 1.01 ± 0.018
186 | CGATTTATGT | 0.9925 ± 0.0057
187 | CGATTTCTCT | 0.973 ± 0.04
188 | CGATTTTCAT | 0.988 ± 0.013
189 | CGATTTTGGC | 0.962 ± 0.049
190 | CGATTTTGGT | 0.9633 ± 0.0038
191 | CGATTTTTTG | 1 ± 0.019
192 | CGCAAATCAA | 1.38 ± 0.073
193 | CGCAATTGAG | 3.38 ± 0.17
194 | CGCAATTGTT | 2.49 ± 0.55
195 | CGCACGGGTC | 1.11 ± 0.038
196 | CGCAGAGCAA | 2.538 ± 0.0049
197 | CGCAGGCACG | 1.07 ± 0.052
198 | CGCAGTCTGT | 1.12 ± 0.012
199 | CGCATCAAGT | 1.01 ± 0.031
200 | CGCATCCTTG | 1.03 ± 0.027
